Columns and labels:
[1] = biological target: Vg5/Vd2 T cell receptor expressed on SKW3 cells (UniProt A0JD36); assay: flow cytometry, dose-response binding at 37 C, SKW3 cells expressing Vg5/Vd2
[2] = biological target: Vg9/Vd1 T cell receptor expressed on SKW3 cells (UniProt Q99603); assay: flow cytometry, dose-response binding at 37 C, SKW3 cells expressing Vg9/Vd1
[3] = biological target: Vg9/Vd2 T cell receptor expressed on SKW3_4 cells (UniProt Q99603); assay: flow cytometry, dose-response binding at 37 C, SKW3_4 cells expressing Vg9/Vd2
[4] = biological target: Vg5/Vd2 TCR on SKW3 cells (UniProt A0JD36); assay: flow cytometry DRC binding 37 C, SKW3 cells expressing Vg5/Vd2
[5] = biological target: Vg9/Vd1 TCR on SKW3 cells (UniProt Q99603); assay: flow cytometry DRC binding 37 C, SKW3 cells expressing Vg9/Vd1
[6] = biological target: Vg9/Vd2 TCR on SKW3_4 cells (UniProt Q99603); assay: flow cytometry DRC binding 37 C, SKW3_4 cells expressing Vg9/Vd2
Vg9/Vd2 TCR on SKW3_4 cells, sequence (Q99603 21-122, chain 1 of 2): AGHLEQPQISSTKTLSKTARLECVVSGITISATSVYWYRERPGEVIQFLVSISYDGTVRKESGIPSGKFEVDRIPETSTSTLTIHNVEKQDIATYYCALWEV
Vg9/Vd2 TCR on SKW3_4 cells, sequence (A0JD36 20-115, chain 2 of 2, further chain): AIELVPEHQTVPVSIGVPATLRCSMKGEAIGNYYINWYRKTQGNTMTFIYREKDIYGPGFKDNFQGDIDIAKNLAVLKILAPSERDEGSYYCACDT

Vg9/Vd1 T cell receptor expressed on SKW3 cells, sequence (Q99603 21-122): as the sequence (Q99603 21-122, chain 1 of 2) above
Vg9/Vd1 TCR on SKW3 cells, sequence (Q99603 21-122): as the sequence (Q99603 21-122, chain 1 of 2) above
Vg9/Vd2 T cell receptor expressed on SKW3_4 cells, sequence (Q99603 21-122, chain 1 of 2): as above
Vg9/Vd2 T cell receptor expressed on SKW3_4 cells, sequence (A0JD36 20-115, chain 2 of 2, further chain): as the sequence (A0JD36 20-115, chain 2 of 2, further chain) above
Vg5/Vd2 TCR on SKW3 cells, sequence (A0JD36 20-115): as the sequence (A0JD36 20-115, chain 2 of 2, further chain) above
Vg5/Vd2 T cell receptor expressed on SKW3 cells, sequence (A0JD36 20-115): as the sequence (A0JD36 20-115, chain 2 of 2, further chain) above

| Binder | Max. Activity (fold over background) [1] | Max. Activity (fold over background) [2] | Max. Activity (fold over background) [3] | Max. Activity (fold over background) [4] | Max. Activity (fold over background) [5] | Max. Activity (fold over background) [6] |
| --- | --- | --- | --- | --- | --- | --- |
| VG9B47 (antibody, human IgG1, kappa, V domains shown) VH: QVQLVQSGAEVKKPGSSVKVSCKASGGSFSNYAISWMRQAPGQGLEWMGGIIPFFGTPDYAQKFQGRVTITADKSTSTAYMELSSLRSEDTAVYYCSTGGGYGDYDYYYGINVWGQGTMVTVSS VL: DIVMTQSPLSSPVDLGQPASISCRSSQSLVHSDGNTYLSWLQQRPGQPPRLLIYKISNRFSGVPDRFSGSGAGTDFTLKISRVEAEDVGVYYCMQAKEFPLTLGGGTKVDIKR | – | – | – | 212 | 308 | 162 |
| VG9B96 (antibody, human IgG1, kappa, V domains shown) VH: EVQLVQSGAEVKKPGSSVKVSCKASGGTFSNYAISWVRLAPGQGLEWMGGIIPIFSAGTYAQRFQGRVTITADKSTSTAYMELNSLRSEDTAVYYCSSNSGTYYDYYYGMDVWGQGTMVTVSS VL: DIVMTQSPLSSHVTLGQPASISCRSSQSLVHSDGNTYLSWLQQRPGQPPRLLIYKIFNRLSGVPDRFSGSGAGTDFTLKISRVEAEDVGVYYCMQAKQFPLTFGGGTKVEIKR | – | – | – | 224 | 245 | 126 |
| VG9B114 (antibody, human IgG1, kappa, V domains shown) VH: EVQLVESGGDLVQPGGSLRLSCAASGFTFSRYDMHWVRQATGKGLEWVSAIGSAGDTYYPGSVKGRFTISRENAKNSLYLQMNSLRAGDTAVYYCARGKWELRDAFDIWGQGTMVTVSS VL: DIVMTQSPSFLSASVGDRVTITCRASQGIHSYLAWYQQKPGKAPKLLIYVASTLQSGVPSRFSGSRSGTEFTLTISSLQPEDFATYYCQQLNSYPYTFGQGTKLEIKR | 226 | 8.38 | 176 | – | – | – |
| VG9B136 (antibody, human IgG1, kappa, V domains shown) VH: QVQLQQSGPGLVKPSQTLSLTCAISGDSVSSNRAAWNWIRQSPSKGLEWLGRTYYRSKWYNEYAASVKSRMSINPDTSKNQFSLQLNSVTPEDTALYYCARDLWELREACDIWGQGTMVTVSS VL: DIVMTQSPSFLSTFVGDRVTITCRASQGISSYLAWYQQKPGKVPKLLIYVASTLQSGVPSRFSGSGSGTEFTLTISSLQPEDFATYYCQQLNSYPFTFGPGTKVDIKR | – | – | – | 226 | 288 | 181 |
| VG9B112 (antibody, human IgG1, kappa, V domains shown) VH: QVQLQQSGPGLVKPSQTLSLTCAISGDSVSSNSAAWNWIRQSPSRGLEWLGGTYYRSKWFNNYAVSVKSRITINPDTSTNQFSLQLNSVTPADTAVYYCARGEWGLRDAFDIWGQGTMVTVSS VL: DIQMTQSPSFLSASVGDRVIITCRASQGIHSYLAWYQQKPGKVPKLLIYVASTLQSGVPSRFSGSGSGTEFTLTISSLQPEDFATYYCQQLNSYPWTFGQGTKLEIKR | – | – | – | 217 | 328 | 227 |
| VG9B144 (antibody, human IgG1, lambda, V domains shown) VH: QVQLVQSGAEVKKPGASVKVSCKASGYTFTGYYMHWMRQAPGQGLEWMGWINPNSGATNKEQKFQGRVTMTRDTSISTAYMELSRLRSDDTAVYYCAREDDAFDVWGQGTMVTVSS VL: SSELTQDPAVSVALGQTVRITCQGDNLRNYYATWFQQKPGQAPVLVFFGKNNRPSGIPDRFSGSSSGDTASLTITGAQAEDEADYYCNSRDSSGNHVVFGGGTKLTVLG | – | – | – | 194 | 205 | 123 |
| VG9B41 (antibody, human IgG1, kappa, V domains shown) VH: QVQLQESGPQLVRPGASVKISCKASGYSFTTYWMHWVKQRPGQGLEWIGLIDPSDSETRLNQKFKDKATLTVDKSSSTAYMRLSSPTSEDSAVYYCASNRWLLGWGQGTMVTVSS VL: EIVLTQTPLSSPVTLGQPASISCRSSQSLVHSDGNTYLSWLHQRPGQPPRLLIYKISNRFSGVPDRFSGSGAGTDFTLKISRVETEDVGVYYCVQTREFPLTFGGGTKVEIKR | – | – | – | 16.1 | 2.18 | 11.4 |
| VG9B77 (antibody, human IgG1, kappa, V domains shown) VH: EVQLVESGAEVMKPGSSVKVSCKASGGTFSSYAISWVRQAPEQGLEWMGGIIPFFGTADYAQKFQGRVTITADKSTNTAYMELTSLRSEDTAVYYCATATVTTDYYYGMDVWGQGTMVTVSS VL: EIVMTQSPLFSPVTLGQPASISCRSSQSLVHSDGNTYLSWLQQRPGQPPRLLIYEISNRFTGVPDRFSGSGAGTDFTLKISRVEAEDVGVYYCMQARQFPLTFGGGTKVEIKR | – | – | – | 148 | 137 | 102 |
| VG9B87 (antibody, human IgG1, kappa, V domains shown) VH: QVQLVESGAEVKKPGASVKVSCKASGYTFTSEYIHWVRQAPGQGLEWMGIINPSGGSTSYAQRFQGRVTMTRDTSTSTVYMEVNSLRSEDTAVYYCARERGYSYGSFDYWGQGTLVTVSS VL: EIVLTQSPSFLSASAGDRVTITCRASQGISSYLAWYQQKPEKAPKLLIYAASTLQSGVPSRFSGSGSGTEFTLTISSLQPEDFATYYCQQFNSYSLTFGGGTKLEIKR | 51.6 | 1.4 | 139 | – | – | – |

More lines, now with the values ahead:

| Max. Activity (fold over background) [1] | Max. Activity (fold over background) [2] | Max. Activity (fold over background) [3] | Max. Activity (fold over background) [4] | Max. Activity (fold over background) [5] | Max. Activity (fold over background) [6] | Binder |
| --- | --- | --- | --- | --- | --- | --- |
| 203 | 2.15 | 177 | – | – | – | VG9B208 (antibody, human IgG1, lambda, V domains shown) VH: QVQLQESGPGLVKPSETLSLTCTVSGGSISGYYWSWIRQPPGKGLELIGYIFYSGSINYNPSLKNRVTISLDTSKNQFSLKLTSVTAADTAVYYCARVGKWELRSSFDIWGQGTMVTVSS VL: QSVLTQPPSVSAAPGQKVTISCSGSTSNIGNNDVSWYQQLPGTAPKLLIYDNNKRPSGIPDRFSGSKSGTSATLGITGLQTGDEADYYCGTWDSSLSVWVFGGGTKLTVLG |
| – | – | – | 92.7 | 389 | 211 | VG9B386 (antibody, human IgG1, kappa, V domains shown) VH: EVQLVESGGGLVKPGGSLRLSCAASGFTFSSYSMIWVRQAPGKGLEWVSSIGSSSTYIYYADSVRGRFTISRDNAKTSLYLQMNSLRAEDTAMYFCARDGETGGFDYWGQGILVTVSS VL: EIVMTQSPGTLSLSPGERATLSCRASQSISRSYLAWYQQKPGQPPRLLIYGPSNRATGIPDRFSASGSGTDFTLTNSRLEPEDFAVYYCQQYGSLPLTFGGGTKVEIKR |
| – | – | – | 281 | 295 | 154 | VG9B392 (antibody, human IgG1, lambda, V domains shown) VH: QVQLVQSGAEVKRPGASAKVSCKTSGYTFTGYYIHWVRQAPGQGLEWMGWINPNSGYTNSAQKFQGRVSMTRDTSISTVYMELSRLRSDDTAVYYCAREDDAFDIWGQGTLVTVSS VL: SSELTQDPAVSVALGQTVRITCQGDSLRSYYARWYQQKPGQAPVLVIYGKNNRPSGIPDRFSGSSSGDTASLTITGALAEDEADYYCNSRDNSGNHVVFGGGTKVTVLG |
| – | – | – | 261 | 435 | 201 | VG9B387 (antibody, human IgG1, lambda, V domains shown) VH: EVQLVESGAEVKKPGASVKVSCKASGFTFTGYYLQWVRQAPGQGLEWMGWINPNSGYTDYAQRFQDRVTMTRDTSINTAYMELSRLRSDDTAVYYCARLDDAFDVWGQGTMVTVSS VL: SYELTQDPAVSVALGQTVRITCQGDSLRNYYAIWYQQKPGQAPVLVIFGKNNRPSGIPDRFSGSSSGTTASLTITGTQAEDEADYYCNSRDSSGNHWVFGGGTKLTVLG |
| 193 | 1.28 | 161 | – | – | – | VG9B177 (antibody, human IgG1, lambda, V domains shown) VH: QVQLQESGPGLVKPSETLSLTCTVSGGSINNYFWSWIRQPPGKGLEWIGYIFYSGSTNYNPSLKSRVTISIDTSKNQFSLKVNSVTAADTAVYYCARVGKWELRTAFDIWGQGTMVTVSS VL: QSALTQPASVSGSPGQSITISCTGTSSDVADYNYVSWYQQHPGKAPKLMIYEVSNRPSGVSNRFSGSKSGNTASLTISGLQAEDEADYYCCSYTSSFTVVFGGGTKVTVLG |
| 171 | 1.02 | 127 | – | – | – | VG9B372 (antibody, human IgG1, kappa, V domains shown) VH: QVQLQESGPGLVKPSQTLSLTCTVSGGSISNGGFYWSWIRQHPGKGLEWLGYINYSGSTYYNPSLESRGTISLDTSKNQFSLKLRSVTAADTAVYYCARDRNYEWNFDLWGRGTLVTVSS VL: EIVMTQSPATLSLSPGEGATLSCRASQSVSSYLAWYQQKPGQAPRLLVYDASNRATGIPARFSGSGSGTAFTLTITSLEPEDFVVYYCQQRSNWPLTFGGGTKLEIKR |
| 69.8 | 1.59 | 30.5 | – | – | – | VG9B147 (antibody, human IgG1, lambda, V domains shown) VH: QVQLQESGPGLVNPSETLSLTCTVSGGSISGYFWNWIRQPPGKGLEWIGYIFYSGSTNYNPSLKSRVTISVDTSKNQFSLKLSSVTAADTAIYYCAREGKWELRSTFDIWGQGTMVTVSS VL: SSELTQDPAVSVALGQTVRITCQGDSLRSYYATWYQQKPGQAPILVIYGENNRPSGIPDRFSGSRSGNTASLTITGAQAEDEADYYCNSRDTGDHHLVFGGGTKLTVLG |
| – | – | – | 260 | 295 | 160 | VG9B379 (antibody, human IgG1, lambda, V domains shown) VH: EVQLVQSGPEVKKPGASVKVSCKASGYTFTGDYIHWVRQVPGQGLEWMGWINPNSGGTNYAQKFQGRVTMTRDTSISTAFMELSRLRSDDTAVYYCAREGGVAPAAPDAFDIWGQGTMVTVSS VL: SSELTQDPAVSVALGQTVRITCQGDSLRSYYARWYQQKPGQAPVVVIYGKNNRPSGIPDRFSGSSSGNTASLTITGAQAEDEADYYCNSRDSSGNHRVFGGGTKLTVLG |
